Data from the supplement of paper PMC12636428.

system: Saccharomyces cerevisiae; test: transcriptional activation domain activity (GFP:mCherry ratio, weighted mean of sorted bins, harmonized to initial dataset scale) (arbitrary fluorescence ratio units); higher = stronger transcriptional activation; details: beta-estradiol 1 µM; induction time 4 h
Outline: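 Values are activation activity, found as the read-weighted mean of bin median fluorescence, averaged across barcodes and then mapped linearly onto the initial dataset scale. Barcoded protein tiles fused to an estradiol-inducible synthetic transcription factor were integrated at the URA3 locus of GFP-reporter yeast diploids. Cells were induced for 4 hours at 30 °C with 1 uM beta-estradiol in SC, sorted into 8 bins by GFP:mCherry ratio, and barcode-sequenced, with tiles under 50 reads discarded.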

Sequence | transcriptional activation domain activity
MIHSIAVYIMLISSTLTHSLISLLFYILSLYVGIFYTYHILFKVLFICQWFLF | 76200
MIHVPLIIFYIILNLFVAYLCLLIFSYYYRMIAQLLYNQCMIQMQPIIHQIKE | 53500
MIHYPPLLQSPRLVCTLLCSVDVIWLWFNHLFTLFITWRGVLFFLSFFTLLFF | 51600
MIIASLVPGGGIGFFYFVFWSLLWLRLFLAFLSIMGSFLCLFTCYMPSFLFFS | 33400
MIIFFFFFFLLCHWINTGIIFHVLDLMVKFLFFIFVDQQKKLSLLLFIHFAWL | 54700
MIIGMWLFCHVGSSFSVYHMFPLLYFRLLLCYLVFWSCFLLTFSKVSFSFLFA | 54400
MIIIDIFLSIYMILSYLYLHLFIFHVHMNPSYFIYFLAFSVKEIFIVSWFFFI | 57300
MIIIIIIIMGNRFMMMSFLFAFFSLFFFLMKFFLSFSFFLFLSFLLIMFAISL | 62100
MIILGRMGYSHVLLLPFFNSICFSFLFLPHSLCCLHFNSFYTYFLLLPHPHLF | 61900
MIISAVYITYFFSLSYLFFPLYLFIVYPFFSFLFNLLAKDTFIVDTYIIVFFA | 50600
MIITFYTFFSFFPFFISFSLSLFSLRYFFFFFSFLSLSFFFFLFFLILIHLFL | 14400
MIITLSRLFFFFFFFPVRFLAFLNHFFLFFFFFWLRWGLSVCFFILSWPGEKS | 46400
MIIVFVFFSLFFFLPFLFPLAFFFLFLFPFFLPSYFPSYSLRCSYEGRPSFFF | 47100
MIIVLLVKVVVFNLMCKCLMVNVGRCFGEIVSCTFYFWKHILFYYLRSVVTRL | 37700
MIIVRSIFYCLGLIALLEFMLIRVASAFAISSLLTNLAYNKPFFLTYLSCATH | 67100
MIIYYIGSIFWCLGNLQVGGFFGFDGIWSYCIFWRNWVRDVFGLSVLIGVVNY | 44900
MIKFSLLIFLIVFILDYLIFFCFFFFFLFFYFFIQFTLFMVCGGDLIYGFING | 43200
MIKKISFFLYIFALRSSFFLFLFVLYFFFPLFFFFFFSFSFFFLLLVSVATLE | 12200
MIKRLRWRRKIERNLPEFRLIPFLQRLLWLLLLLQFLLHLLHPPILCLHRLRY | 50700
MILARMLHIYIYKEIVDLTNVCIKCIKIISSEVRRVVLFNLDQTYETIPYIVE | 66600
MILFFFAHRGLFLVYSASFCLCCDCLYFFLVYTFFFTLHNPFFLVPLFFSIIL | 62900

Sequence | transcriptional activation domain activity
MILHSSYLPLGVPPFSIYYILHTLGHSINKITKLLLSNLILRFLNCCTQLIVR | 53400
MILIVFSLLLSFPMFLERVLFFPLSFLFFFSPSFCLSYTQPSPLTMPFFSYFC | 68300
MILKHIHSCHALASFVVSLHSFPLLFSCPSRGLCGIVALETVFLFFFFPLFQL | 75600
MILLPSLWLLSLVVIFPVCYFYIQKSFPFPSSLFCIVCPITIYIINILSSHVL | 33900
MILLQCIPPFFLFSFLYSFVFPSPLPTIYDLSFSVSFFLFLFPWLVEIQLCCC | 52800
MILLVSFFFLLLIFFFSIREFRSECIVNDFWSFVYLSAYIVLDVCRIFFFLFW | 25600
MILMIFTYLLLTIPVVVGLIVASLLHFNFIHLNVLYACSLTSLQLINPCMVLF | 50000
MILMLLLLLLLLLLLLVMVLLLLLVMVLLVVLLVLLWVLLLMLLWVLLGVLLG | 16200
MILNGELERCRESLHIVSEYVHSILRLNVLCLRLLYRRMDPSREPVDLFEVAV | 54500
MILRAFFLLTVYFVCSPFFFLIIYLLFYDRPDSTLSWIWIWIHTFLPSLLFPS | 42500
MILRIWGFHYLYMLVPGWYLCFRFSFFLFYFLFLFLLQFLHITLPFSCLVSFW | 46200
MILTLFALCFFFLDTSSCFLHFISIVSFLISLILCLFFFFFLVASEPFHFIPS | 57900
MILTSHLSFILFLFLFLFPFSFSSFLPFYLHYLFILPSILIFPSPPFLPSLFL | 51200
MILVQLYIYHHFLNYRCLLHVILFRLKLILPSSSLIFVLGSVESSGNHGTSYD | 49200
MILWARAWISLFLFLYLLFYLFVFSLDIPPFLLYTFFIFILLLCVFACTYRHK | 49200
MILWNWILEFHSQTSFTLLLFILFHFIFFAYVPLLTSCYSHLFSFSFSTVSFI | 46900
MILYTWFFLRSPFFIFGILWVHGLVDRFLFCHLLVVYFCHLVNFFIHLKYANE | 55700
MIMGKVVGSIPTVSNFLPFSFLFFFSSFLFSSLSSCEVVCLIISFFSFFHWLS | 55200
MIMILLVAVLYFLLFRFDLLGLFYCQLFLLSSHLRFVLSTLYLNGSHHLLFFF | 34000
MIMYKIYFYTHFRLFFYICFYVHVEFSKPILLHVVLKLIKQLVFLSTYHLFLL | 47900
MINCYAEVALFECCVMFILSPLPPFSLSPQYIFYTLLLYLHYQYFVYRNCALL | 71500

Sequence | transcriptional activation domain activity
MINFWLFIFLSSSLLFLPFFFLYIFFNYYYFFLFTQYIMVTWFFENYQFANAW | 56200
MINKKTNPCKILFDPFSSFLFGNLILLSLFLFVDVIFSLPCFLYVCFVFFPSL | 69200
MIPFQTGQVMGMLNRIDRLPLKEILTYAMPYLLEKTNVSMIIRQYLWSTLGNH | 44100
MIPGVLLECSFVEFLSFLLDLLLLTLLWIMRLMMMLLLPLFLLLLLIFVYCCV | 39500
MIPLLSFYYYFYISTCKTELLFSPFIFYFLLFLYIYIKIYTYFLHTPFLLVFE | 47700
MIPLQVLSLIDAKNLILLLTKFFSCVALSSCLYWDSCYNLIHGYLVLYKIIYT | 59400
MIPLSHRKHKLISLPYLLVSSWLFLSVTLSIPLLQSYIAKHYSTGLVLFLLYF | 71900
MIPPIHSPSFLQSYICFMLILPLPLMSIIVFHPLYFFWLFLSFLLLDYYLLLL | 23300
MIPSSAPLNFFLPFPFQFWFFFDFFFLTVEQPFFLCVVFFLLAFYVMLLYFFI | 17900
MIPSVMIRTSDYSLVIILSLCLVLKMMLICIVCSIESYLTNLDKWLFCLILCK | 51300
MIPSYLSHGRAAIIAIRLVLALYFFWHPLVLFLSSLKLITPCICLHLLFAFWI | 62500
MIQTPLFYYLFYILFYFIFIFIYSLLGFFLIFYLFVLFSFHFCFPPPPPFSFF | 46900
MIRDTPKSPSHPPSARSSSSRASSTTSCLSSTSTPAARTSSSSTTARTPVPRP | 28600
MIRFPCLLLYIFAMVYLGVLFFSFFDSCFFFFLHLLGAGWVVHFFLDIFFFYI | 70600
MIRPFSIYSITLDVFPWLLNLFFLFFFLILFPLLRNFLFCVVSLIQNIQPLCF | 30400
MIRTLFLFFLFIIIFFFFFFFCFLLFFVFLFLFIFLIVVFTIRKSMNLGFVCV | 42400
MIRWVFFRGYLGQEGFLSFLFFFVFFSGLSLWERIGYGFFILPSFYMDLLFLA | 58300
MISFFCDIPVFSLLVPFLPLSFMFPMSPMFYYFFIYAVGCSIFLSLLFFSYVI | 28100
MISFFNWQVWGGFCGLLFIFFLFDFFLLEFGSTYHLLEDGLNLFLFWYFYDYD | 43600
